In PMC11480083 one finds Km and kcat data, which are given here for eleven molecules.

Substitutions are numbered along the chain they refer to. Numbers in names are those of the source.

Series [1] relates to O=C(c1ccc(O)cc1O)c1ccc(O)cc1O. Kind of series: purified protein. Particulars: 4 mM UDP-Glc, 100 mM Kpi pH 8.0, 30 °C.
Substrate in the series “purified protein”: O=C(c1ccc(O)cc1O)c1ccc(O)cc1O
In words: purified protein.

Substrate in series [2]: O=C(c1ccc(O)cc1O)c1ccc(O)cc1O
Kind of series: steady-state kinetics, HPLC. The series is classed as biochemical, Citrus japonica. The following applies: UDP-Glc donor.

Substrate in series [3]: O=C(c1ccc(O)cc1O)c1ccc(O)cc1O
Kind of series: steady-state kinetics, HPLC. It is filed as biochemical, Nelumbo nucifera. Particulars: UDP-Glc donor.

Substrate in series [4]: O=C(c1ccc(O)cc1O)c1ccc(O)cc1O
In words: steady-state kinetics, HPLC. The following applies: UDP-Glc donor. It is filed as biochemical, Gardenia jasminoides.

A word on the Km: it is the substrate concentration at which the rate is half of its maximum. As a reminder, the kcat is the maximal rate divided by the concentration of active sites. Regarding MiCGT (Mangifera indica), in series [1], the Km is 430 ± 155 µM and the catalytic constant (kcat) amounted to 0.00848 ± 0.00147 s⁻¹.
With MiCGT (Mangifera indica; E152Q), the Km in series [1] came to 176 ± 25 µM.
For the molecule “MiCGT (Mangifera indica; E152Q/S122P/V190D)”, in series [1], the Km is 36 ± 3 µM and the turnover number (kcat) was determined as 0.1579 ± 0.00172 s⁻¹.
As to MiCGT (Mangifera indica; E152Q/V190D), the Km in series [1] is 189 ± 21 µM.
As for MiCGT (Mangifera indica; M148A), the Km in series [1] is 269 ± 49 µM.
Consider “MiCGT (Mangifera indica; M148A/S121D/V190T)”, for which, in series [1], the Km was 249 ± 30 µM and the kcat is 0.51143 ± 0.0157 s⁻¹.
For the molecule MiCGT (Mangifera indica; M148A/V190T), the Km in series [1] amounted to 317 ± 100 µM.

B1: FcCGT (Citrus japonica; A189D/T149Q) (protein)
chain: MSDSGGFDSHPHVALIPSAGMGHLTPFLRLAASLVQHHCRVTLITTYPTVSLAETQHVSHFLSAYPQVTEKRFHLLPFDPNSANATDPFFLRWEAIRRSAHLLAPLLSPPLSALITDVTLISAVLPVTINLHLPNYVLFTASARMFSLQASFPAIVASKSTSSGSVEFDDDFIEIPGLPPIPLSSVPPDVMDSKSLFATSFLENGNSFVKSNGVLINSFDALEADTLVALNGRRVVAGLPPVYAVGPLLPCEFEKRDDPSTSLILKWLDDQPEGSVVYVSFGSRLALSMEQTKELGNGLLSSGCRFLWVVKGKTVDKEDEESLKNVLGHELMEKIKDQGLVVKNWVDQDKVLSHRAVGGFVSHGGWNSLVEAARHGVPVLVWPQFGDQKINAEAVESAGLGMWVRSWGWGTELRAKGDEIGLKIKDLMANDFLREQAKRIEEEARKAIGVGGSSERTFKELIDKWKCNNNTH
B1: in “purified protein”, the Km stood at 375 ± 72 µM and the kcat amounted to 0.04075 ± 0.0016 s⁻¹.

B2: FcCGT (Citrus japonica; M145A/V118D) (protein)
chain: B1 chain with V118D, M145A, Q149T, D189A
Turning to B2, in series [2], the Km is 1064 ± 151 µM and the kcat was found to be 0.05323 ± 0.00218 s⁻¹.

B3: NnGT (Nelumbo nucifera; C156Q/L197D/S126P) (protein)
chain: MEMSSSSDLQILPPHVALLPSSGMGHLVPFVRLAAALARRNCLVTFITTHPTVSLSESRLVSRLLSAFPHVTPLEFHLLPLDHSTANSKDPFFLQFEAIRRSAHLLSPLLSSCSDPPLSALITDVPLASAFISITDELRLPNYILFTSSAWMLSLQLNFPTFVVNTSTNLSGGSATASDDIEIPGVPPVPKSWLPPDLLDLSNLFTTQFMANGQELIKSNGILINTFGNAEQATVAALNEGKVVNGLPPVTKIGPLAPCEFEKGSSVEWLDGQPAGSVLYVSFGSRTAMSREQIRELGDGLVRSGCRFLWVVKDKKVDREDEEELGGIVGQELMERMKDNGLVVKNWVDQGVVLAHPAVGGFLSHCGWNSVTEAAWNGVPVLAWPQHGDQSINAQVMEKSGIGMWVKSWGWGRTEVVKGEEIGQKIGEMMGNDRLKAQAANIREESRRAVEVGGGSYKELEGIIEKWKISRI
Consider B3, for which, in series [3], the Km came to 319 ± 61 µM and the kcat is 0.00872 ± 0.000567 s⁻¹.

B4: GjGTa (Gardenia jasminoides; A142M/F116S/F117P) (protein)
chain: MENTLVLYPAPGIGHMISMLELAKLILRHYSNKFSRIHILINTGFRDMKSTYLDHISSTNPSIVVHQFPFIQADLSSSLSPPAIGFKFIRKNAPNVHHALQEISKTSSIRALIIDSPCTSAMPYSNNLGIPVYYFFTSGAAMVALFLYFPTIHKQTSESFKDLVQTKFDVPGLPPIPATQMPEPVLDRDDPAYDDILYYSVHLPKSSGIIVNTFDELEPIALKAITDGLCVPDAPTPPLYNIGPLIADADSRPAIDGDKGIDLDQSDCFSWLDRQPDQCVVFLCFGSRGTFSVEQIKEIAKGLERSGKRFLWVVKKPLRNNKSKQVEGSGGFEIDSILPERFLEKTKGIGLVVKSWIPQLQVLRHPAVGGFVTHCGWNSTLEAVVAGVPLVAWPLHAEQHVNMAALVQDMKMAIPVEQGDDGIVRGEEVEKRVRELMDSERGRELRKLSQKTRDIAAESGVHLGSSSTALASLIHVVFGN
As for B4, in series [4], the Km turned out to be 12 ± 0.5 µM and the kcat stood at 0.00035 ± 1.2e-06 s⁻¹.
